B1: anti-GM-CSF human IgG1 monoclonal antibody E10 (antibody, V domains shown)
VH: QVQLEESGGGVVQPGRSLRLSCAASGFTFTNYGMHWVRQAPGKGLEWLALISYDGNRQYYADSVKGRFTVSRDNPNNTLHLEMKSLRAEDSAIYYCARGAGVLLWFGDLSWFDPWGQGTLVTVSS
VL: DIQMTQSPSNLSASVGDRVTITCRASQNINTWLAWYQHKPGKPPKLRIYQASTLESGVPSRFSGSGSGTIFTLTISSLQPDDFGTYYCQQNNSYPYTFGQGTKLEINR
notes: Fully human IgG1 kappa made by a hybridoma from B cells of a PAP patient; also called 4E10; E10.20
B2: anti-GM-CSF human IgG1 monoclonal antibody G9 (antibody, V domains shown)
VH: EVQLVESGGGLVQPGGSLRLSCAASGFTFSRHWMHWLRQVPGKGPVWVSRINGAGTSITYADSVRGRFTISRDNANNTLFLQMNSLRADDTALYFCARANSVWFRGLFDYWGQGTPVTVSS
VL: EIVLTQSPVTLSVSPGERVTLSCRASQSVSTNLAWYQQKLGQGPRLLIYGASTRATDIPARFSGSGSETEFTLTISSLQSEDFAVYYCQQYDKWPDTFGQGTKLEIKR
notes: Fully human IgG1 kappa made by a hybridoma from B cells of a PAP patient; also called 10G9; 10G9.1

Biological target: TT (tetanus toxin / tetanus toxoid) (UniProt P04958 2-1315)
Assay: ELISA of hybridoma clones

Chain of TT (tetanus toxin / tetanus toxoid) (P04958 2-457 limits assumed, chain 1 of 2): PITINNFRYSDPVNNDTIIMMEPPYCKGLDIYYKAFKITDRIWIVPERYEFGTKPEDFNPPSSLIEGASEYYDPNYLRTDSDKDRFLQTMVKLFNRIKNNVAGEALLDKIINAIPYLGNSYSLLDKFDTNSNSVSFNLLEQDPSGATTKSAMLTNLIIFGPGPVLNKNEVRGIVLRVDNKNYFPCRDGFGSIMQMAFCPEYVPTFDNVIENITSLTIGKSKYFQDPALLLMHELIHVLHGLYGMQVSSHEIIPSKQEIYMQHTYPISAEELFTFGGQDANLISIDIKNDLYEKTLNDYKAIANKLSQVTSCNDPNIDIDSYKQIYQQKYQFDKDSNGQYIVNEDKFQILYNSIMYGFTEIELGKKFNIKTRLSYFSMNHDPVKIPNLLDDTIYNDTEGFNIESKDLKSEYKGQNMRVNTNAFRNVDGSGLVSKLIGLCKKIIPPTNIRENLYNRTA
Chain of TT (tetanus toxin / tetanus toxoid) (P04958 458-1315 limits assumed, chain 2 of 2): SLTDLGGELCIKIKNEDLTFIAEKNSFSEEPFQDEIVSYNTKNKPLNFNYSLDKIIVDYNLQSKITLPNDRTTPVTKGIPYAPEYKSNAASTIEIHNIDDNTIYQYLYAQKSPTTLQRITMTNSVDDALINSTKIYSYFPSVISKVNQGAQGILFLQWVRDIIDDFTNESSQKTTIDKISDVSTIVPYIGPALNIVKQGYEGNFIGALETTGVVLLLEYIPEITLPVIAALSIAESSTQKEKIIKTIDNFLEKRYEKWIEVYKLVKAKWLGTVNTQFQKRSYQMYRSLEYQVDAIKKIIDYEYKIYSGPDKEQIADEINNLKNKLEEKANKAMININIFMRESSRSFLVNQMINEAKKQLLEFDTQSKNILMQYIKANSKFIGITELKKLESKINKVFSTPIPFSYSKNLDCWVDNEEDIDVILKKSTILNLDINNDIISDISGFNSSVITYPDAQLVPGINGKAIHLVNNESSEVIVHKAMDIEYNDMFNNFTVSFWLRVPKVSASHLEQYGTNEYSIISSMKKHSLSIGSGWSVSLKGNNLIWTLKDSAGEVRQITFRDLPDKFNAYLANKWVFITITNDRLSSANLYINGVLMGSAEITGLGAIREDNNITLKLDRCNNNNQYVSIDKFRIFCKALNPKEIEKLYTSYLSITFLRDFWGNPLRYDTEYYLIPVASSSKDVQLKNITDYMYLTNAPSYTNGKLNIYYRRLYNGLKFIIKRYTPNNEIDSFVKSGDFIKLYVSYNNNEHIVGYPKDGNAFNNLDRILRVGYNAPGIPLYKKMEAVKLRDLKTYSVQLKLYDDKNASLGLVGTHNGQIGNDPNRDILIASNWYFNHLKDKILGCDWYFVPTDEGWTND

Binder	binding result
B1	no binding
B2	no binding

— patent US20080292641A1 (MORPHOTEK, published 2008)
